Measured values published in paper doi:10.1101/2023.01.18.524603.

Experiments:
Assay in all cases: EMSA
Conditions in all cases: EMSA: 25 mM Tris-HCl pH 7.4, 100 mM NaCl, 5 ng DNA in 10 ul, 20 min, room temperature, AFM: 25 mM HEPES-NaOH pH 7.4, 5 mM MgCl2, 50 mM NaCl, 10% glycerol
[1] = system: Rec114(388-428) K417A/K424A-Mei4N (Saccharomyces cerevisiae)
[2] = system: Rec114(386-428)-Mei4N (Saccharomyces cerevisiae)
[3] = system: Rec114(388-428) R395A/K396A-Mei4N (Saccharomyces cerevisiae)
[4] = system: Rec114(325-428)-Mei4(1-90) (Saccharomyces cerevisiae)
[5] = system: Rec114C-Mei4N-ybbR-LD650 (Saccharomyces cerevisiae)
[6] = system: Rec114(388-428) K399A/R400A-Mei4N (Saccharomyces cerevisiae)
[7] = system: Rec114(388-428)-Mei4(13-43) (Saccharomyces cerevisiae)
[8] = molecular target: T1, Rec114C-Mei4N (RM-TDB) (Saccharomyces cerevisiae) (UniProt P32841+P29467)
T1 sequence 1: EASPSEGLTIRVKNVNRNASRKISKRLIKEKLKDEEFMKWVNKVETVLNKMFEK
T1 sequence 2: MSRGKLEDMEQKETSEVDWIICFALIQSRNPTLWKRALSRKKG

[9] = system: Rec114(388-428)-Mei4N (Saccharomyces cerevisiae)
[10] = system: Rec114(388-428) K403A/K407A-Mei4N (Saccharomyces cerevisiae)
[11] = system: Rec114C-Mei4N-ybbR (Saccharomyces cerevisiae)
[12] = system: Rec114C (Saccharomyces cerevisiae)

| Substance | K half [1] [nM] | K half [2] [nM] | K half [3] [nM] | K half [4] [nM] | K half [5] [nM] | K half [6] [nM] | K half [7] [nM] | K half [8] [nM] | K half [9] [nM] | K half [10] [nM] | K half [11] [nM] | K half [12] [nM] |
| --- | --- | --- | --- | --- | --- | --- | --- | --- | --- | --- | --- | --- |
| 150-bp linear DNA | 900 | 110 | 1000 | 90 | 90 | 2000 | 100 | 90 | 110 | 1000 | 90 | – |
| 1000-bp linear DNA | – | – | – | – | – | – | – | 80 | – | – | – | 300 |
